Where no end group is shown, it is not given here.
T1: receptor NKG2D (UniProt P26718 80-216)
T1 sequence (looked up): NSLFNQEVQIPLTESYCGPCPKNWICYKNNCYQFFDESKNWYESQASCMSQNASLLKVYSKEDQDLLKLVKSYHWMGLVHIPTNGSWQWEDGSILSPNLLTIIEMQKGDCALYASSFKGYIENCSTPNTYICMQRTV


Tests used:
[1] = target: T2, lectin MAA from Maackia amurensis (Maackia amurensis); experiment: solid-phase competition; fetuin at one-third, equal or 5-fold the molar concentration of peptide; MAA
T2 construct: Plant lectin; peroxidase-conjugated in the solid-phase assays
T2 sequence (P0DKL3 30-278): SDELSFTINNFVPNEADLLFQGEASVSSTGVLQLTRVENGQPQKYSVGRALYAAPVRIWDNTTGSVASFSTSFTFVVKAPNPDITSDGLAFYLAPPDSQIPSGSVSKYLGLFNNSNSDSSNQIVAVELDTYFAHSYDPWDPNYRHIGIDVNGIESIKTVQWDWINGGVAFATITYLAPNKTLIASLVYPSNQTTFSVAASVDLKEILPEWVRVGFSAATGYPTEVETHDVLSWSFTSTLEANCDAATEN

receptor NKG2D [2] = target: T1, receptor NKG2D; experiment: isothermal microcalorimetry; SVH1C (100 µM) titrated into NKG2D (11 µM monomer)
receptor NKG2D [3] = target: T1, receptor NKG2D; experiment: isothermal microcalorimetry; NKG2D concentration entered as monomeric binding sites

Binder | percent inhibition of SVH1C binding at a 5-fold molar excess of fetuin [1] | Ka (receptor NKG2D [2]) | Kd (receptor NKG2D [2]) | stoichiometry, n (receptor NKG2D [3])
fetuin (other, UniProt P12763 19-359, looked up, 12 to 15 oligosaccharides terminating predominantly as Neu5Ac-Gal on three N-linked and three O-linked glycans, acts through its sialylated glycans; also called glycoprotein fetuin; sialylated protein, fetuin) IPLDPVAGYKEPACDDPDTEQAALAAVDYINKHLPRGYKHTLNQIDSVKVWPRRPTGEVYDIEIDTLETTCHVLDPTPLANCSVRQQTQHAVEGDCDIHVLKQDGQFSVLFTKCDSSPDSAEDVRKLCPDCPLLAPLNDSRVVHAVEVALATFNAESNGSYLQLVEISRAQFVPLPVSVSVEFAVAATDCIAKEVVDPTKCNLLAEKQYGFCKGSVIQKALGGEDVRVTCTLFQTQPVIPQPQPDGAEAEAPSAVPDAAGPTPSAAGPPVASVVVGPSVVAVPLPLHRAHYDLRHTFSGVASVESSSGEAFHVGKTPIVGQPSIPGGPVRLCPGRIRYFKI | 90% |  |  | 
SVH1C ([NPSHPLSGGGGS]4K3-NH2) (also: four copies of chain 1 bound by their C-termini to the four amino groups of the branched tri-lysine core, also called quadravalent SVH1C; lead peptide) peptide: NPSHPLSGGGGS Lys-Lys-Lys-NH2 |  | 1.7e+06 M⁻¹ | 600 nM | 0.71

Source: patent US20150299255A1 (SUSAVION BIOSCIENCES, published 2015)
